B1: Palmitoyltransferase ZDHHC5 (Mus musculus), Q8VDZ4 (parent)
chain: MPAESGKRFKPSKYVPVSAAAIFLVGATTLFFAFTCPGLSLNVSPAVPIYNAIMFLFVLANFSMATFMDPGIFPRAEEDEDKEDDFRAPLYKTVEIKGIQVRMKWCATCRFYRPPRCSHCSVCDNCVEEFDHHCPWVNNCIGRRNYRYFFLFLLSLTAHIMGVFGFGLLYVLYHIEELSGVRTAVTMAVMCVAGLFFIPVAGLTGFHVVLVARGRTTNEQVTGKFRGGVNPFTNGCCNNVSRVLCSSPAPRYLGRPKKEKTIVIRPPFLRPEVSDGQITVKIMDNGIQGELRRTKSKGSLEITESQSADAEPPPPPKPDLSRYTGLRTHLSLATNEDSSLLGKDSPPTPTMYKYRPGYSSSSTSAAMPHSSSAKLSRGDSLKEPTSIADSSRHPSYRSEPSLEPESFRSPTFGKSFHFDPLSSGSRSSSLKSAQGTGFELGQLQSIRSEGTTSTSYKSLANQTRNGSLSYDSLLTPSDSPDFESVQAGPEPDPPLGYTSPFLSARLAQQREAERHPRLLPTGPPHREPSPVRYDNLSRHIVASLQEREKLLRQSPPLAGREEEPGLGDSGIQSTPGSGHAPRTSSSSDDSKRSPLSKTPLGRPAVPRFGKPDGLRSRGLGSPEPGTTAPYLGRSISYSSQKAPSGVSETEEVALQPLLTPKDEVQLKTTYSKSNGQPKSIGSASPGPGQPPLSSPTRGGVKKVSGVGGTTYEISV

Variants of: B1
Details: with goga7_human GOLGA7, Q7Z5G4

Variant | effect of a mutation on the interaction
C134S | with no effect
C236S;C237S;C245S | disrupting interaction strength
